According to US20240117034A1 (SHANGHAI JEMINCARE PHARMACEUTICAL, published 2024):

Key:
[1] = molecular target: human GARP/human latent TGF-β1 complex on recombinant cells (293F-hGARP/hTGF-β1, CHOK1-hGARP/hTGF-β1) (human) (UniProt Q14392); test: flow cytometry on 293F-hGARP/hTGF-β1 clone 2D3
[2] = molecular target: human GARP/human latent TGF-β1 complex on recombinant cells (293F-hGARP/hTGF-β1, CHOK1-hGARP/hTGF-β1) (human) (UniProt Q14392); test: flow cytometry on 293F-hGARP/hTGF-β1 clone 2F4
[3] = molecular target: T1, human GARP/human latent TGF-β1 complex on recombinant cells (293F-hGARP/hTGF-β1, CHOK1-hGARP/hTGF-β1) (human, UniProt Q14392 20-662; P01137 30-390); test: flow cytometry titration on 293F-hGARP/hTGF-β1 cells, Alexa 488 anti-mouse IgG secondary
T1 construct: whole, on cells; Both full-length proteins were co-expressed on 293F or CHOK1 cells; The host cell of each assay is named in the assay field; also called 293F-hGARP/hTGF-β1 complex; clones 2F4 and 2D3
T1 sequence (Q14392 20-662, chain 1 of 2): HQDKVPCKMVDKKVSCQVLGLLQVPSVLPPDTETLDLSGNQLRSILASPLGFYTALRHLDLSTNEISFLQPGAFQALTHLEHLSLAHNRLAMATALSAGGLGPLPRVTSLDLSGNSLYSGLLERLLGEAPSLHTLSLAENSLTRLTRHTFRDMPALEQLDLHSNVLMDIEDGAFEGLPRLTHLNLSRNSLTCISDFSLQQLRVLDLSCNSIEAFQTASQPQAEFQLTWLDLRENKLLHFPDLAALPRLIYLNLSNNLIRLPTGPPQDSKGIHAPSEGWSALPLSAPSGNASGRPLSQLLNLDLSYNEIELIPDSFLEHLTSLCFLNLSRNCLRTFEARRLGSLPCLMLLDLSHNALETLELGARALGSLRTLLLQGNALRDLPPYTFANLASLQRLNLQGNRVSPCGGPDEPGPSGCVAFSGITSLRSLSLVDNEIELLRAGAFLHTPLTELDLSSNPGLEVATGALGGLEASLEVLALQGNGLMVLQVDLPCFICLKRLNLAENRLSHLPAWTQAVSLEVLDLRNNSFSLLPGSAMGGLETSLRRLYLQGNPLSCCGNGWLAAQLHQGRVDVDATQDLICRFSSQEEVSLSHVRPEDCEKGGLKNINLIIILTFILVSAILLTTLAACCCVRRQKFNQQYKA
T1 sequence (P01137 30-390, chain 2 of 2): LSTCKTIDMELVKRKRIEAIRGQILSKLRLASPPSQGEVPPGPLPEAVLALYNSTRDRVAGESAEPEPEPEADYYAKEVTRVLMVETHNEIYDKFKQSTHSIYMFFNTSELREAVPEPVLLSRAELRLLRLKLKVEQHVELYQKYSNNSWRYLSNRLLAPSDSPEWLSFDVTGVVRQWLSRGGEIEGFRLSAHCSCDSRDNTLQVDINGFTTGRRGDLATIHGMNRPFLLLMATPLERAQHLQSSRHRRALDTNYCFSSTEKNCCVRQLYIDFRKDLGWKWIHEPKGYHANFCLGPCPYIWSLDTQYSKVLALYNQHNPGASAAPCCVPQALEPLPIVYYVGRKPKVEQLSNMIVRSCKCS
Description: The cells were counted and centrifuged at 300 g for 5 min, the supernatant was discarded, the cell pellet was resuspended and washed with 1×PBS, then centrifuged at 300 g for 5 min, the supernatant was discarded, and then the cell pellet was resuspended with FACS buffer containing 2% FBS to adjust to a density of 1e6 cells/mL. The cells were plated at a density of 1e5 cells/well for a constant volume of 100 μL/well at 4° C. for 0.5 h, and centrifuged at 300 g for 5 min, and the supernatant was discarded. The antibody to be tested was prepared in FACS buffer containing 2% FBS with a starting concentration of 15 µg/mL, followed by serial dilution with a dilution factor of 1:5 in a total of 7 gradients, and then was added for a constant volume of 100 μL/well, with 0 μg/mL as a control, the dilution was pipetted and mixed thoroughly at 4° C. for 1 h, and centrifuged at 300 g for 5 min, and the supernatant was discarded. 1×PBS was added for a constant volume of 200 μL/well to resuspend and mix the cell pellet thoroughly, followed by centrifugation at 300 g for 5 min, the supernatant was discarded, and the steps were repeated twice. […] The cell pellet was resuspended in FACS buffer containing 2% FBS to read on a FACS machine. […]

[4] = molecular target: T1, human GARP/human latent TGF-β1 complex …; test: flow cytometry competition on 293F-hGARP/hTGF-β1 cells; the competitor is Alexa 488-labelled MHG8 at a fixed concentration; falling curve
[5] = molecular target: T2, hGARP/hTGF-β1 complex (Kactus Biosystems, Cat. No.: GAR-HM4TG) (human, UniProt Q14392 20-627; P01137 30-390, limits assumed); test: Octet RED96e (BLI), antibody captured on AHC sensor, complex in solution from 100 nM, 1:1 model
T2 construct: Bought soluble recombinant complex; also called antigen (hGARP/hTGF-β1 complex)
T2 sequence (Q14392 20-627 limits assumed, chain 1 of 2): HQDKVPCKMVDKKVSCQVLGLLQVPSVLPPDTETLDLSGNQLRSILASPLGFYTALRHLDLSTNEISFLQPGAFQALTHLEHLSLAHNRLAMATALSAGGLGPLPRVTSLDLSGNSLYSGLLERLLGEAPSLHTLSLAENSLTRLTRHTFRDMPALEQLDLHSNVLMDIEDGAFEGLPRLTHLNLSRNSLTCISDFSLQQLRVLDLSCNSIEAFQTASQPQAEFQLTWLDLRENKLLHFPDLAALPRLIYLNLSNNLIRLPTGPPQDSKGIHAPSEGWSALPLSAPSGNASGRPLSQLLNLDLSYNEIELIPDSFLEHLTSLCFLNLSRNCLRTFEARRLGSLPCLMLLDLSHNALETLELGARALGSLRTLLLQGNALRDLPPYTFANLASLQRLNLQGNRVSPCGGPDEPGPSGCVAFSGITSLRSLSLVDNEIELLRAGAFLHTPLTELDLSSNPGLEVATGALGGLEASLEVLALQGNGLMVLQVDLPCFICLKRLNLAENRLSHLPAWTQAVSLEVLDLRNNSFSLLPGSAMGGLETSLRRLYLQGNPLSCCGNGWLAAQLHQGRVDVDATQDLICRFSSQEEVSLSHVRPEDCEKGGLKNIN
T2 sequence (P01137 30-390 limits assumed, chain 2 of 2): as the sequence (P01137 30-390, chain 2 of 2) above

human GARP/human latent TGF-β1 complex on recombinant cells (293F-hGARP/hTGF-β1, CHOK1-hGARP/hTGF-β1) (human), sequence (Q14392 20-662, chain 1 of 2): as the sequence (Q14392 20-662, chain 1 of 2) above
human GARP/human latent TGF-β1 complex on recombinant cells (293F-hGARP/hTGF-β1, CHOK1-hGARP/hTGF-β1) (human), sequence (P01137 30-390, chain 2 of 2, further chain): as the sequence (P01137 30-390, chain 2 of 2) above

Row | Molecule | Mean maximum fluorescence intensity (MFI) [1] [MFI] | Mean maximum fluorescence intensity (MFI) [2] [MFI] | EC50 [3] [mg/L] | EC50 [4] [mg/L] | Kd [5] [nM] | koff [5] [s⁻¹] | kon [5] [M⁻¹ s⁻¹]
1 | Isotype control-APC (antibody) | 103 | 90 | – | – | – | – | –
2 | Isotype control-FITC (antibody) | 103 | 101 | – | – | – | – | –
3 | murine anti-human GARP monoclonal antibody 8H2D7B3 (antibody, V domains shown, Antibody purified from the hybridoma; It was detected with anti-mouse IgG, and mouse IgG1 served as isotype control; also called murine antibody 8H2D7B3) VH: QVQLQQSGAELVRPGSSVKLSCKASGYTLSNYWMYWVKQRPIQGLEWIGSIAPSDSETHYNQKFKDRATVTVDKSSRIVYMQLSSLTSEDSAVYFCARGGFGYGSSHWYFDVWGTGTTVTVSS VL: DIQMTQSSAYLSVSLGGRVTITCKASDHINKWLAWYQQKPGNAPRLLISGATSLETGIPSRFSGSGSGKDYTLSITGLQTEDVATYYCQQYWTTPYTFGGGTKLEIK | – | – | 0.108 | 1.61 | – | – | –
4 | MHG8 (anti-human GARP antibody) (antibody, V domains shown) VH: QVQLKESGPGLVAPSQSLSITCTVSGFSLTGYGINWVRQPPGKGLEWLGMIWSDGSTDYNSVLTSRLRISKDNSNSQVFLKMNSLQVDDTARYYCARDRNYYDYDGAMDYWGQGTSVTVSS VL: DIQVTQSSSYLSVSLGDRVTITCKASDHIKNWLAWYQQKPGIAPRLLVSGATSLEAGVPSRFSGSGSGKNFTLSITSLQTEDVATYYCQQYWSTPWTFGGGTTLEIR | – | – | 0.12 | 2.74 | 0.205 | 2.85e-05 | 139000

Next, values leading:

Row | Mean maximum fluorescence intensity (MFI) [1] [MFI] | Mean maximum fluorescence intensity (MFI) [2] [MFI] | EC50 [3] [mg/L] | EC50 [4] [mg/L] | Kd [5] [nM] | koff [5] [s⁻¹] | kon [5] [M⁻¹ s⁻¹] | Molecule
5 | 6960 | 8370 | – | – | – | – | – | anti-human GARP antibody-FITC (Enzo life science, ALX-804-867FI-0100)
6 | 142000 | 150000 | – | – | – | – | – | anti-human TGF-β1 antibody, Anti-LAP (TGF-β1) Antibody-APC (R&D Systems, FAB2463A)
